B1: Interferon-induced helicase C domain-containing protein 1 (Homo sapiens), Q9BYX4 (parent)
chain: MSNGYSTDENFRYLISCFRARVKMYIQVEPVLDYLTFLPAEVKEQIQRTVATSGNMQAVELLLSTLEKGVWHLGWTREFVEALRRTGSPLAARYMNPELTDLPSPSFENAHDEYLQLLNLLQPTLVDKLLVRDVLDKCMEEELLTIEDRNRIAAAENNGNESGVRELLKRIVQKENWFSAFLNVLRQTGNNELVQELTGSDCSESNAEIENLSQVDGPQVEEQLLSTTVQPNLEKEVWGMENNSSESSFADSSVVSESDTSLAEGSVSCLDESLGHNSNMGSDSGTMGSDSDEENVAARASPEPELQLRPYQMEVAQPALEGKNIIICLPTGSGKTRVAVYIAKDHLDKKKKASEPGKVIVLVNKVLLVEQLFRKEFQPFLKKWYRVIGLSGDTQLKISFPEVVKSCDIIISTAQILENSLLNLENGEDAGVQLSDFSLIIIDECHHTNKEAVYNNIMRHYLMQKLKNNRLKKENKPVIPLPQILGLTASPGVGGATKQAKAEEHILKLCANLDAFTIKTVKENLDQLKNQIQEPCKKFAIADATREDPFKEKLLEIMTRIQTYCQMSPMSDFGTQPYEQWAIQMEKKAAKEGNRKERVCAEHLRKYNEALQINDTIRMIDAYTHLETFYNEEKDKKFAVIEDDSDEGGDDEYCDGDEDEDDLKKPLKLDETDRFLMTLFFENNKMLKRLAENPEYENEKLTKLRNTIMEQYTRTEESARGIIFTKTRQSAYALSQWITENEKFAEVGVKAHHLIGAGHSSEFKPMTQNEQKEVISKFRTGKINLLIATTVAEEGLDIKECNIVIRYGLVTNEIAMVQARGRARADESTYVLVAHSGSGVIEHETVNDFREKMMYKAIHCVQNMKPEEYAHKILELQMQSIMEKKMKTKRNIAKHYKNNPSLITFLCKNCSVLACSGEDIHVIEKMHHVNMTPEFKELYIVRENKALQKKCADYQINGEIICKCGQAWGTMMVHKGLDLPCLKIRNFVVVFKNNSTKKQYKKWVELPITFPNLDYSECCLFSDED
B2: Interferon-induced helicase C domain-containing protein 1 (Homo sapiens), Q9BYX4 (parent)
chain: B1 chain
partner: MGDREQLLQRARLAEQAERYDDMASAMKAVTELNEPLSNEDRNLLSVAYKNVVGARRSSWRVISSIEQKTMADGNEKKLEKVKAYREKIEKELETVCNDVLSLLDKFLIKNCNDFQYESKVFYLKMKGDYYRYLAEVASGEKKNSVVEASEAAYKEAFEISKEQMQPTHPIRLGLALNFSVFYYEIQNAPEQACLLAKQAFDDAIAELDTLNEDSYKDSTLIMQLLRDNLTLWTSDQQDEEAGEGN

Variants of: B1
Details: with isg15_human ISG15, P05161
isg15_human ISG15, P05161, sequence (P05161 whole entry): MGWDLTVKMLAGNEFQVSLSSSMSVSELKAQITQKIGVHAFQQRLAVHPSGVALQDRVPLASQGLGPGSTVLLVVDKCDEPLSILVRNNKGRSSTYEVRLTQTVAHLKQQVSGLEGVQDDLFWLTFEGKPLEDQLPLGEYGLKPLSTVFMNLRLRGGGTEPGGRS

effect of a mutation on the interaction | Variant
decreasing interaction strength | K68R
decreasing interaction strength | K23R
with no effect | K137R
increasing interaction strength | K235R
decreasing interaction strength | K43R
with no effect | K169R
with no effect | K174R
disrupting interaction strength | K23R;K43R
with no effect | K128R

Variants of: B2
Details: with 1433f_human YWHAH

effect of a mutation on the interaction | Variant
with no effect | K23R;K43R
with no effect | K68R

— IntAct's records for PubMed 33727702
